Source: patent US20230002480A1

Columns and labels:
Assay in all cases: cell-based or functional assay
[1] = molecular target: HIV-1 Env of pseudovirus CAP45.2.00.G3 (HIV-1)
[2] = molecular target: HIV-1 Env of pseudovirus QH0692.42 (HIV-1)
[3] = molecular target: HIV-1 Env of pseudovirus WEAU_d15_410_787 (HIV-1)
[4] = molecular target: HIV-1 Env of pseudovirus T250-4 (HIV-1)
[5] = molecular target: HIV-1 Env of pseudovirus RHPA4259.7 (HIV-1)
[6] = molecular target: HIV-1 Env of pseudovirus CNE58 (HIV-1)
[7] = molecular target: HIV-1 Env of pseudovirus Ce2060_G9 (HIV-1)
[8] = molecular target: HIV-1 Env of pseudovirus 1394C9G1(Rev-) (HIV-1)
[9] = molecular target: HIV-1 Env of pseudovirus 1054_07_TC4_1499 (HIV-1)
[10] = molecular target: HIV-1 Env of pseudovirus 191955_A11 (HIV-1)
[11] = molecular target: HIV-1 Env of pseudovirus Ce704809221_1B3 (HIV-1)
[12] = molecular target: HIV-1 Env of pseudovirus 249M B10 (HIV-1)
[13] = molecular target: HIV-1 Env of pseudovirus 1006_11_C3_1601 (HIV-1)
[14] = molecular target: HIV-1 Env of pseudovirus 191084 B7-19 (HIV-1)
[15] = molecular target: HIV-1 Env of pseudovirus 6244_13_B5_4576 (HIV-1)
[16] = molecular target: HIV-1 Env of pseudovirus CNE30 (HIV-1)
[17] = molecular target: HIV-1 Env of pseudovirus Ce1172_H1 (HIV-1)
[18] = molecular target: HIV-1 Env of pseudovirus Q259.d2.17 (HIV-1)
[19] = molecular target: HIV-1 Env of pseudovirus HIV-16845-2.22 (HIV-1)
[20] = molecular target: HIV-1 Env of pseudovirus 7030102001E5(Rev-) (HIV-1)
[21] = molecular target: HIV-1 Env of pseudovirus Du172.17 (HIV-1)
[22] = molecular target: HIV-1 Env of pseudovirus CNE17 (HIV-1)
[23] = molecular target: HIV-1 Env of pseudovirus TRO.11 (HIV-1)
[24] = molecular target: HIV-1 Env of pseudovirus 6535.3 (HIV-1)
[25] = molecular target: HIV-1 Env of pseudovirus 62357_14_D3_4589 (HIV-1)
[26] = molecular target: HIV-1 Env of pseudovirus WITO4160.33 (HIV-1)
[27] = molecular target: HIV-1 Env of pseudovirus BF1266.431a (HIV-1)

10E8 (antibody)
IC50, titer in TZM.bl cells [1]: 1.82 µg/mL
IC80, titer in TZM.bl cells [1]: > 10 µg/mL
IC50, titer in TZM.bl cells [2]: 0.442 µg/mL
IC80, titer in TZM.bl cells [2]: 4.05 µg/mL
IC50, titer in TZM.bl cells [3]: > 10 µg/mL
IC80, titer in TZM.bl cells [3]: > 10 µg/mL
IC50, titer in TZM.bl cells [4]: 1.35 µg/mL
IC80, titer in TZM.bl cells [4]: 8.13 µg/mL
IC50, titer in TZM.bl cells [5]: 0.728 µg/mL
IC80, titer in TZM.bl cells [5]: 5.28 µg/mL
IC50, titer in TZM.bl cells [6]: 1.29 µg/mL
IC80, titer in TZM.bl cells [6]: 8.27 µg/mL
IC50, titer in TZM.bl cells [7]: 3.52 µg/mL
IC80, titer in TZM.bl cells [7]: > 10 µg/mL
IC50, titer in TZM.bl cells [8]: 0.963 µg/mL
IC80, titer in TZM.bl cells [8]: 5.33 µg/mL
IC50, titer in TZM.bl cells [9]: 0.046 µg/mL
IC80, titer in TZM.bl cells [9]: 0.305 µg/mL
IC50, titer in TZM.bl cells [10]: 0.68 µg/mL
IC80, titer in TZM.bl cells [10]: 3.53 µg/mL
IC50, titer in TZM.bl cells [11]: 0.058 µg/mL
IC80, titer in TZM.bl cells [11]: 0.319 µg/mL
IC50, titer in TZM.bl cells [12]: 1.27 µg/mL
IC80, titer in TZM.bl cells [12]: 9.05 µg/mL
IC50, titer in TZM.bl cells [13]: 0.172 µg/mL
IC80, titer in TZM.bl cells [13]: 3 µg/mL
IC50, titer in TZM.bl cells [14]: 5.16 µg/mL
IC80, titer in TZM.bl cells [14]: > 10 µg/mL
IC50, titer in TZM.bl cells [15]: 0.086 µg/mL
IC80, titer in TZM.bl cells [15]: 0.809 µg/mL
IC50, titer in TZM.bl cells [16]: 1.56 µg/mL
IC80, titer in TZM.bl cells [16]: 9.84 µg/mL
IC50, titer in TZM.bl cells [17]: 0.722 µg/mL
IC80, titer in TZM.bl cells [17]: 4.82 µg/mL
IC50, titer in TZM.bl cells [18]: 4.59 µg/mL
IC80, titer in TZM.bl cells [18]: > 10 µg/mL
IC50, titer in TZM.bl cells [19]: 0.068 µg/mL
IC80, titer in TZM.bl cells [19]: 0.495 µg/mL
IC50, titer in TZM.bl cells [20]: 6.71 µg/mL
IC80, titer in TZM.bl cells [20]: > 10 µg/mL
IC50, titer in TZM.bl cells [21]: 0.109 µg/mL
IC80, titer in TZM.bl cells [21]: 0.837 µg/mL
IC50, titer in TZM.bl cells [22]: 1.11 µg/mL
IC80, titer in TZM.bl cells [22]: 5.25 µg/mL
IC50, titer in TZM.bl cells [23]: 0.034 µg/mL
IC80, titer in TZM.bl cells [23]: 0.25 µg/mL
IC50, titer in TZM.bl cells [24]: 0.081 µg/mL
IC80, titer in TZM.bl cells [24]: 1.32 µg/mL
IC50, titer in TZM.bl cells [25]: 0.119 µg/mL
IC80, titer in TZM.bl cells [25]: 1.06 µg/mL
IC50, titer in TZM.bl cells [26]: 0.094 µg/mL
IC80, titer in TZM.bl cells [26]: 1.23 µg/mL
IC50, titer in TZM.bl cells [27]: 2.69 µg/mL
IC80, titer in TZM.bl cells [27]: > 10 µg/mL

PG9 (antibody)
IC50, titer in TZM.bl cells [1]: 0.007 µg/mL
IC80, titer in TZM.bl cells [1]: 0.029 µg/mL
IC50, titer in TZM.bl cells [2]: > 50 µg/mL
IC80, titer in TZM.bl cells [2]: > 50 µg/mL
IC50, titer in TZM.bl cells [3]: 4.08 µg/mL
IC80, titer in TZM.bl cells [3]: > 50 µg/mL
IC50, titer in TZM.bl cells [4]: 0.005 µg/mL
IC80, titer in TZM.bl cells [4]: 0.014 µg/mL
IC50, titer in TZM.bl cells [5]: 22.6 µg/mL
IC80, titer in TZM.bl cells [5]: > 50 µg/mL
IC50, titer in TZM.bl cells [6]: 0.038 µg/mL
IC80, titer in TZM.bl cells [6]: 0.122 µg/mL
IC50, titer in TZM.bl cells [7]: 0.045 µg/mL
IC80, titer in TZM.bl cells [7]: 0.172 µg/mL
IC50, titer in TZM.bl cells [8]: 0.029 µg/mL
IC80, titer in TZM.bl cells [8]: 0.114 µg/mL
IC50, titer in TZM.bl cells [9]: > 50 µg/mL
IC80, titer in TZM.bl cells [9]: > 50 µg/mL
IC50, titer in TZM.bl cells [10]: 0.053 µg/mL
IC80, titer in TZM.bl cells [10]: 0.154 µg/mL
IC50, titer in TZM.bl cells [11]: 0.037 µg/mL
IC80, titer in TZM.bl cells [11]: 0.137 µg/mL
IC50, titer in TZM.bl cells [12]: 0.095 µg/mL
IC80, titer in TZM.bl cells [12]: 0.29 µg/mL
IC50, titer in TZM.bl cells [13]: 0.366 µg/mL
IC80, titer in TZM.bl cells [13]: 1.91 µg/mL
IC50, titer in TZM.bl cells [14]: 0.043 µg/mL
IC80, titer in TZM.bl cells [14]: 0.202 µg/mL
IC50, titer in TZM.bl cells [15]: > 50 µg/mL
IC80, titer in TZM.bl cells [15]: > 50 µg/mL
IC50, titer in TZM.bl cells [16]: > 50 µg/mL
IC80, titer in TZM.bl cells [16]: > 50 µg/mL
IC50, titer in TZM.bl cells [17]: 0.07 µg/mL
IC80, titer in TZM.bl cells [17]: 0.206 µg/mL
IC50, titer in TZM.bl cells [18]: 0.029 µg/mL
IC80, titer in TZM.bl cells [18]: 1.38 µg/mL
IC50, titer in TZM.bl cells [19]: 4.4 µg/mL
IC80, titer in TZM.bl cells [19]: > 50 µg/mL
IC50, titer in TZM.bl cells [20]: > 50 µg/mL
IC80, titer in TZM.bl cells [20]: > 50 µg/mL
IC50, titer in TZM.bl cells [21]: 0.606 µg/mL
IC80, titer in TZM.bl cells [21]: 1.6 µg/mL
IC50, titer in TZM.bl cells [22]: 0.21 µg/mL
IC80, titer in TZM.bl cells [22]: 0.484 µg/mL
IC50, titer in TZM.bl cells [23]: 43.2 µg/mL
IC80, titer in TZM.bl cells [23]: > 50 µg/mL
IC50, titer in TZM.bl cells [24]: 0.176 µg/mL
IC80, titer in TZM.bl cells [24]: 0.627 µg/mL
IC50, titer in TZM.bl cells [25]: > 50 µg/mL
IC80, titer in TZM.bl cells [25]: > 50 µg/mL
IC50, titer in TZM.bl cells [26]: 0.01 µg/mL
IC80, titer in TZM.bl cells [26]: 0.037 µg/mL
IC50, titer in TZM.bl cells [27]: 0.026 µg/mL
IC80, titer in TZM.bl cells [27]: 0.088 µg/mL
